Data taken from the supplement of paper PMC7877785.
± gives the uncertainty stated by the source.

Experiment: self-splicing fitness, log relative to wild type (ln ratio); higher = more splicing; Tetrahymena group I intron in knt gene, E. coli kanamycin selection, DiMSum; sequences stand for … in CUCUCU…GGAGGGAAAAGUUAUCAGGCAUGCACCUGGUAGCUAGUCUUUAAACCAAUAGAUUGCAUCGGUUUAAAAGGCAAGACCGUCAAAUUGCGGGAAAGGGGUCAACAGCCGUUCAGUACCAAGUCUCAGGGGAAACUUUGAGAUGGCCUUGCAAAGGGUAUGGUAAUAAGCUGACGGACAUGGUCCUAACCACGCAGCCAAGUCCUAAGUCAACAGAUCUUCUGUUGAUAUGGAUGCAGUUCACAGACUAAAUGUCGGUCGGGGAAGAUGUAUUCUUCUCAUAAGAUAUAGUCGGACCUCUCCUUAAUGGGAGCUAGCGGAUGAAGUGAUGCAACACUGGAGCCGCUGGGAACUAAUUUGUAUGCGAAAGUAUAUUGAUUAGUUUUGGAGUACUCGUGGUCG
Method in brief: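 Fitness was computed with DiMSum as the error-weighted combination of replicate fold changes, kanamycin versus none, each normalised to wild type. The library randomised all eight intron nucleotides of the P1ex region, with the intron placed in the knt kanamycin-resistance gene on pET-22b(+) in E. coli BL21(DE3). Six replicate transformations were grown overnight at 37°C or 30°C on LB agar with or without 25 μg/mL kanamycin, plus 100 μg/mL carbenicillin, 50 μM IPTG and 0.2% rhamnose. Pooled colonies were amplicon-sequenced on an Illumina HiSeq 2500.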

Sequence | self-splicing fitness (ln) (30 °C) | self-splicing fitness (ln) (37 °C)
GUCGAGCAAUAUUACGGUCC | -3.17 ± 0.22 | -0.877 ± 0.17
GUCGAGCAAUAUUACGGUUC | -2.27 ± 0.14 | -1.73 ± 0.17
GUCGAGCAAUAUUACGUAAA | -2.73 ± 0.29 | -0.959 ± 0.27
GUCGAGCAAUAUUACGUACG | -2.29 ± 0.26 | -2.44 ± 0.41
GUCGAGCAAUAUUACGUACU | -2.83 ± 0.29 | -0.966 ± 0.21
GUCGAGCAAUAUUACGUAUC | -0.209 ± 0.13 | -1.42 ± 0.15
GUCGAGCAAUAUUACGUCCG | -4 ± 0.43 | -0.959 ± 0.3
GUCGAGCAAUAUUACGUCGG | – | -2.34 ± 0.22
GUCGAGCAAUAUUACGUCUG | -3.5 ± 0.43 | -2.51 ± 0.3
GUCGAGCAAUAUUACGUUAC | -3.38 ± 0.22 | -1.49 ± 0.27
GUCGAGCAAUAUUACGUUUA | -2.37 ± 0.15 | -1.87 ± 0.15
GUCUAGCAAUAUUACGAAAU | 0.0935 ± 0.11 | 0.4 ± 0.1
GUCUAGCAAUAUUACGAACG | -1.83 ± 0.2 | -1.13 ± 0.23
GUCUAGCAAUAUUACGACAC | -0.746 ± 0.13 | -0.011 ± 0.11
GUCUAGCAAUAUUACGCGUC | -2.18 ± 0.099 | -0.0852 ± 0.1
GUCUAGCAAUAUUACGCUCU | -0.178 ± 0.13 | 1.05 ± 0.15
GUCUAGCAAUAUUACGCUUG | -1.22 ± 0.11 | -0.705 ± 0.11
GUCUAGCAAUAUUACGGAAG | -0.159 ± 0.09 | 0.218 ± 0.12
GUCUAGCAAUAUUACGGAUU | -1.75 ± 0.089 | -0.0906 ± 0.085
GUCUAGCAAUAUUACGGCAU | -0.166 ± 0.092 | 0.88 ± 0.11
GUCUAGCAAUAUUACGGCUU | -0.982 ± 0.12 | 0.12 ± 0.14
GUCUAGCAAUAUUACGGGGA | -2.08 ± 0.25 | -3.16 ± 0.32
GUCUAGCAAUAUUACGGGUG | -1.28 ± 0.05 | -0.553 ± 0.058
GUCUAGCAAUAUUACGGUAC | -0.985 ± 0.14 | -0.625 ± 0.17
GUCUAGCAAUAUUACGGUGC | 0.0594 ± 0.14 | -0.142 ± 0.15

Sequence | self-splicing fitness (ln) (30 °C) | self-splicing fitness (ln) (37 °C)
GUCUAGCAAUAUUACGGUUU | -1.42 ± 0.077 | -0.192 ± 0.095
GUCUAGCAAUAUUACGUAAC | -0.708 ± 0.13 | -0.195 ± 0.13
GUCUAGCAAUAUUACGUACA | -0.922 ± 0.1 | -0.376 ± 0.1
GUCUAGCAAUAUUACGUAUU | -0.645 ± 0.086 | -0.635 ± 0.095
GUCUAGCAAUAUUACGUUGG | -3.01 ± 0.15 | -1.86 ± 0.14
GUGAAGCAAUAUUACGAACC | -3.05 ± 0.29 | –
GUGAAGCAAUAUUACGACGG | -0.531 ± 0.12 | -0.418 ± 0.23
GUGAAGCAAUAUUACGACUG | -1.37 ± 0.09 | -0.924 ± 0.14
GUGAAGCAAUAUUACGAGAC | -2.62 ± 0.19 | -0.955 ± 0.12
GUGAAGCAAUAUUACGAGCG | -0.702 ± 0.087 | 0.396 ± 0.12
GUGAAGCAAUAUUACGAUAC | -0.501 ± 0.11 | -0.461 ± 0.14
GUGAAGCAAUAUUACGAUAG | -2.11 ± 0.19 | -0.681 ± 0.18
GUGAAGCAAUAUUACGCAGG | -1.88 ± 0.1 | -0.654 ± 0.1
GUGAAGCAAUAUUACGCCCC | -0.362 ± 0.33 | –
GUGAAGCAAUAUUACGCCCG | -0.347 ± 0.39 | -0.026 ± 0.42
GUGAAGCAAUAUUACGCGCC | -4.14 ± 0.33 | -2.69 ± 0.41
GUGAAGCAAUAUUACGCUAG | -0.945 ± 0.14 | 0.0205 ± 0.23
GUGAAGCAAUAUUACGCUGU | -2.74 ± 0.13 | -1.29 ± 0.12
GUGAAGCAAUAUUACGGAAU | -1.06 ± 0.18 | -0.308 ± 0.18
GUGAAGCAAUAUUACGGAGA | -2.03 ± 0.32 | -1.19 ± 0.47
GUGAAGCAAUAUUACGGCGA | 0.0822 ± 0.15 | 0.297 ± 0.18
GUGAAGCAAUAUUACGGUAU | -1.47 ± 0.076 | -0.418 ± 0.1
GUGAAGCAAUAUUACGGUGA | -0.922 ± 0.11 | 0.58 ± 0.14
GUGAAGCAAUAUUACGUACG | -0.64 ± 0.16 | 0.312 ± 0.15
GUGAAGCAAUAUUACGUCCG | -0.484 ± 0.15 | -0.103 ± 0.17

Sequence | self-splicing fitness (ln) (30 °C) | self-splicing fitness (ln) (37 °C)
GUGAAGCAAUAUUACGUCCU | -0.476 ± 0.12 | 0.382 ± 0.18
GUGAAGCAAUAUUACGUCUG | -1.29 ± 0.12 | -0.0242 ± 0.2
GUGAAGCAAUAUUACGUGGC | -2.6 ± 0.14 | -2.41 ± 0.23
GUGAAGCAAUAUUACGUGUC | -2.89 ± 0.11 | -1.83 ± 0.12
GUGAAGCAAUAUUACGUUGC | – | -1.92 ± 0.46
GUGAAGCAAUAUUACGUUUA | -1.01 ± 0.064 | -0.109 ± 0.11
GUGCAGCAAUAUUACGAUAA | -2.55 ± 0.16 | -1.04 ± 0.13
GUGCAGCAAUAUUACGAUAU | -0.385 ± 0.091 | -0.244 ± 0.12
GUGCAGCAAUAUUACGAUCG | -1.95 ± 0.12 | -1.45 ± 0.1
GUGCAGCAAUAUUACGCCAG | -2.82 ± 0.47 | –
GUGCAGCAAUAUUACGCGUC | -3.39 ± 0.3 | -1.4 ± 0.21
GUGCAGCAAUAUUACGCUAA | -0.546 ± 0.17 | 0.418 ± 0.15
GUGCAGCAAUAUUACGCUAU | -2.36 ± 0.15 | -1.14 ± 0.12
GUGCAGCAAUAUUACGGCGU | -1.58 ± 0.096 | -1.93 ± 0.17
GUGCAGCAAUAUUACGGGGU | -2.79 ± 0.22 | -2.19 ± 0.24
GUGCAGCAAUAUUACGGUUA | -0.723 ± 0.092 | -0.164 ± 0.089
GUGCAGCAAUAUUACGGUUU | -0.309 ± 0.062 | -0.000827 ± 0.076
GUGCAGCAAUAUUACGUACC | – | -2.41 ± 0.32
GUGCAGCAAUAUUACGUACU | -2.7 ± 0.39 | -0.869 ± 0.38
GUGCAGCAAUAUUACGUCGU | -1.01 ± 0.12 | -0.193 ± 0.14
GUGCAGCAAUAUUACGUGAA | -0.187 ± 0.1 | -1.19 ± 0.14
GUGCAGCAAUAUUACGUGCG | -2.56 ± 0.1 | -2.06 ± 0.14
GUGCAGCAAUAUUACGUUGA | -1.49 ± 0.13 | -0.806 ± 0.14
GUGGAGCAAUAUUACGAAUA | -4.24 ± 0.47 | -2.33 ± 0.38
GUGGAGCAAUAUUACGACCA | – | -1.24 ± 0.35

Sequence | self-splicing fitness (ln) (30 °C) | self-splicing fitness (ln) (37 °C)
GUGGAGCAAUAUUACGAUAC | -1.47 ± 0.26 | -0.631 ± 0.42
GUGGAGCAAUAUUACGAUUC | -0.681 ± 0.31 | 0.0106 ± 0.22
GUGGAGCAAUAUUACGCAAA | -2.28 ± 0.43 | -1.83 ± 0.25
GUGGAGCAAUAUUACGCCUA | -3 ± 0.29 | -1.96 ± 0.2
GUGGAGCAAUAUUACGCGGA | – | -1.85 ± 0.24
GUGGAGCAAUAUUACGCGGU | -1.16 ± 0.3 | -0.344 ± 0.29
GUGGAGCAAUAUUACGCGUU | -2.56 ± 0.16 | -1.94 ± 0.23
GUGGAGCAAUAUUACGCUGG | -3.52 ± 0.37 | -2.41 ± 0.33
GUGGAGCAAUAUUACGCUUU | -3.84 ± 0.32 | -2.41 ± 0.27
GUGGAGCAAUAUUACGGCCU | -1.74 ± 0.19 | -0.55 ± 0.3
GUGGAGCAAUAUUACGGGAU | -4.12 ± 0.23 | -1.99 ± 0.24
GUGGAGCAAUAUUACGGUUG | -3.04 ± 0.15 | –
GUGGAGCAAUAUUACGUAAU | -2.23 ± 0.13 | -0.812 ± 0.13
GUGGAGCAAUAUUACGUACA | -2.11 ± 0.33 | –
GUGGAGCAAUAUUACGUACU | -2.19 ± 0.37 | -2.2 ± 0.32
GUGGAGCAAUAUUACGUAUC | -2.13 ± 0.2 | -0.331 ± 0.17
GUGGAGCAAUAUUACGUAUG | -3.15 ± 0.24 | -2.3 ± 0.24
GUGGAGCAAUAUUACGUGAG | -2.1 ± 0.19 | -2.39 ± 0.21
GUGGAGCAAUAUUACGUGUC | -3.84 ± 0.22 | -2.64 ± 0.24
GUGGAGCAAUAUUACGUUAA | -2.17 ± 0.19 | -2.41 ± 0.26
GUGUAGCAAUAUUACGAGCG | – | -0.927 ± 0.34
GUGUAGCAAUAUUACGAUAA | -2.6 ± 0.19 | -0.508 ± 0.12
GUGUAGCAAUAUUACGAUGA | -1.16 ± 0.087 | -0.756 ± 0.094
